We go through one substance from article PMC6775479.

Experiment [1] deals with L1-I peptide (HPV16 L1 residues 474-488) (human papillomavirus type 16). Put plainly: ITC; peptide (1 mM) in 50 mM phosphate buffer pH 7.4 in the sample cell; 3HP-β-LG or β-LG (50 μM) in the titration needle; 18°C, 2 μl injections.
The target in experiment [2] is L1-II peptide (HPV16 L1 residues 493-505) (human papillomavirus type 16). The experiment is described as above.
Experiment [3] deals with HPV16 L1 protein (human papillomavirus type 16) (UniProt P03101).
UniProt P03101, sequence (P03101 whole entry): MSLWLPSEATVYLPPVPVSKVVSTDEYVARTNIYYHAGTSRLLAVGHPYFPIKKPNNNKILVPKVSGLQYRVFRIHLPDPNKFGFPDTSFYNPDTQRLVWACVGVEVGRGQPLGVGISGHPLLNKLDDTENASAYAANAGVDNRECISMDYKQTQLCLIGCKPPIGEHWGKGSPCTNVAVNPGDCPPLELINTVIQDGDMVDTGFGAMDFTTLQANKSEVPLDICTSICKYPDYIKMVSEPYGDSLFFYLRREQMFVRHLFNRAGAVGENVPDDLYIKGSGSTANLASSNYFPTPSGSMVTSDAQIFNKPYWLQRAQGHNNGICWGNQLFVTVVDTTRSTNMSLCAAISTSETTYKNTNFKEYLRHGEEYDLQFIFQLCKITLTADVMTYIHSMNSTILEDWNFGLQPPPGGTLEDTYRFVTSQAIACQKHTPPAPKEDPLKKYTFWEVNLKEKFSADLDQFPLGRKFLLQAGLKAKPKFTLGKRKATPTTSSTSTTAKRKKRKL

Consider “3-hydroxyphthalic anhydride (3HP)-modified bovine beta-lactoglobulin (from UniProt P02754 17-178)”, for which the Ka was found to be 231000 M⁻¹ in experiment [1] and 104000 M⁻¹ in experiment [2]. The same substance registered an inhibition of HPV16 PsV entry into HeLa cells (luciferase), IC50 in experiment [3] of 0.59 µg/mL.
